Bridge positions count the residues as written; N and C are the ends. Square brackets hold non-standard residues; d marks the D form. Ends that are not written are not given here. GdDOTAGA = Gd(III)-DOTAGA chelate, amide-linked; Bip = N[C@@H](Cc1ccc(-c2ccccc2)cc1)C(=O)O
Key:
Assay in all cases: dried collagen film in microtiter plate; unbound compound by ICP-MS (Gd); fit to 1 binding site
[1] = target: T1, human type I collagen (VitroCol solution, Advanced Biomatrix, cat#5007-A) (human, UniProt P02452 179-1192; P08123 91-1104, limits assumed)
T1 construct: In the assay the collagen was gelled and dried as a fibril film in microtiter wells; also called human collagen; Human Collagen Type I
T1 sequence (P02452 179-1192 limits assumed, chain 1 of 2): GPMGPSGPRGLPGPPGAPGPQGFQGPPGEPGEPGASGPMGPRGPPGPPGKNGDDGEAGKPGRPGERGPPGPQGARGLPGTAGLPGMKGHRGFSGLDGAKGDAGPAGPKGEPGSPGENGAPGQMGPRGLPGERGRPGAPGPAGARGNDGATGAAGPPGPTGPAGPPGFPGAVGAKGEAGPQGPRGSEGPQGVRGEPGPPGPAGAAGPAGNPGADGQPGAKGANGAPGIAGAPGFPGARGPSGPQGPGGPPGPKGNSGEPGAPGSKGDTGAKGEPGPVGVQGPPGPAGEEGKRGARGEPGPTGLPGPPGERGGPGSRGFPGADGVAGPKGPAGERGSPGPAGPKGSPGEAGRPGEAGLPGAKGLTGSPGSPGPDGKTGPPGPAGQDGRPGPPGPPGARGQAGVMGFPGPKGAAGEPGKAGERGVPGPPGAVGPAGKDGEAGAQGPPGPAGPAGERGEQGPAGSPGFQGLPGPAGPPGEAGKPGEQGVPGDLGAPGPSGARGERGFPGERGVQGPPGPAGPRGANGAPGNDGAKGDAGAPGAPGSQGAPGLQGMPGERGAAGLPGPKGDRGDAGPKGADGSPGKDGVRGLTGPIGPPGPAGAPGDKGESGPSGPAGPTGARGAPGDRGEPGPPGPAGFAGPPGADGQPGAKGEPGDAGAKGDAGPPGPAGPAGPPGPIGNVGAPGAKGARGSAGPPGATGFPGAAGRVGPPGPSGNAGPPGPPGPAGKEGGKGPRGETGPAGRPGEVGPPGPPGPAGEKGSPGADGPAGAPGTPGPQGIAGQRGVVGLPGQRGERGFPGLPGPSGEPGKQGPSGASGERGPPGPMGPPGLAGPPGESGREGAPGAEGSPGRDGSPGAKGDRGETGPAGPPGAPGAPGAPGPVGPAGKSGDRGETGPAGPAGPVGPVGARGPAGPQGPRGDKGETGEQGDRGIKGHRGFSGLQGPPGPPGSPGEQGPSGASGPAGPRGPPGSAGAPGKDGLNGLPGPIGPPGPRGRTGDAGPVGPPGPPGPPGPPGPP
T1 sequence (P08123 91-1104 limits assumed, chain 2 of 2): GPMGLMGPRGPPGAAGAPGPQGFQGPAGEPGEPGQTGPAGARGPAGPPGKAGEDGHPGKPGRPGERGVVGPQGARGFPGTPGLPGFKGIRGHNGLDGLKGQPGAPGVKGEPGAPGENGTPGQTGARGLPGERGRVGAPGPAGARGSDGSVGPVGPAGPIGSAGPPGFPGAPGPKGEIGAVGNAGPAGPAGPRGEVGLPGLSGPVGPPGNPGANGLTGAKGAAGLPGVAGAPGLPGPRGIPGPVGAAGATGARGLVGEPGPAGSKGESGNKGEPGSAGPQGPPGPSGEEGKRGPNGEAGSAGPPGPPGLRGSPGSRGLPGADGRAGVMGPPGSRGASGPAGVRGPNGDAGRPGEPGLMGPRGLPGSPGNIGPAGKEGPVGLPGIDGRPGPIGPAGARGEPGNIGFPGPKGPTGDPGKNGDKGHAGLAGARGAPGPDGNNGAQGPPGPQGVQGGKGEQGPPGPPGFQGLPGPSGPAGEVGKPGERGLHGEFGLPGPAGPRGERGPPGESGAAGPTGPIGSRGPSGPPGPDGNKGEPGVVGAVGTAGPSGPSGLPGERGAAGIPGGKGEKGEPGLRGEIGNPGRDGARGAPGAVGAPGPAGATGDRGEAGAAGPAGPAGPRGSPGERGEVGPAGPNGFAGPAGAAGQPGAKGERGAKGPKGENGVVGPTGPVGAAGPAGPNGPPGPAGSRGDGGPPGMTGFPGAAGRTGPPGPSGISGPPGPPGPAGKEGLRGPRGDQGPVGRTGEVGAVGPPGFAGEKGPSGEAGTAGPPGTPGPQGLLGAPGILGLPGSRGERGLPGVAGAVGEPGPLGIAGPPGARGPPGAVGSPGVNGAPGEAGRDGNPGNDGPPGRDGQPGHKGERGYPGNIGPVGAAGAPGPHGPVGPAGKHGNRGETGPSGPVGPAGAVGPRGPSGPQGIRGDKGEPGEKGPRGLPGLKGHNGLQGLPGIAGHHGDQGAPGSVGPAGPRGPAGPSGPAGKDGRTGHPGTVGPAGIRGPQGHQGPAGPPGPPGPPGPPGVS
Protocol: (§1) Ice-cold 1×PBS pH 10.8 is added to the collagen solution for a final collagen concentration of 10 μM, pH 7.4. Collagen solutions are gelled and dried down in the wells of a 96 well microtiter plate (Corning Polystyrene Flat Bottom, cat#3641). 70 μl of 10 μM collagen is aliquoted into each well in every other lane in the plate (48 wells) and the plate is incubated at 37° C. for 18 hours to form a gel and evaporate to dryness. Ungelled collagen is removed by washing the collagen films with 200 μl 1×PBS pH 7.4 (four times, 15 min per wash). The thin collagen fibril film remains, coating the bottom of each well. After washing by PBS the plate is again dried at 37° C. for 2 hours and is stored at −20° C. The final well content of gelled collagen is measured by determination of hydroxyproline and is around 180 μg/ml.
(§2) a serial dilution of 0.2 μM-30 μM of the peptide chelate is prepared in PBS, pH 7.4 (˜300 μL of solution for each concentration). 90 μl of each concentration is also reserved in a HPLC glass vial as a sample to measure the total concentration. 140 μL of each dilution of peptide chelate is added to wells containing and non-containing collagen (control for nonspecific plastic binging). The plate is then incubated on a shaker table (300 rpm) for 2 hours at room temperature to allow the compound to bind. After 2 hours the supernatant from each well (with or without collagen) is transferred to an HPLC glass vial. The concentration of free, unbound compound in the sample supernatants and the concentration of compound in the reserved (total) sample are determined by ICP-MS (Agilent 7500, gadolinium concentration). The concentration of compound bound to collagen is determined as [bound]=[total]−[unbound].
(§3) The binding of compounds to human, rat and dog collagen (5 μM) was measured over the concentration range 0.2-5 μM of Comp ID Nos.: 1-4. The binding data was fit to a model of 1 binding site.

[2] = target: T2, rat collagen (acid soluble, type I, rat tail, Millipore Inc, cat#08-115) (rat, UniProt P02454 152-1207; P02466 86-1125)
T2 construct: In the assay the collagen was gelled and dried as a fibril film in microtiter wells; also called rat collagen type I
T2 sequence (P02454 152-1207 limits assumed, chain 1 of 2): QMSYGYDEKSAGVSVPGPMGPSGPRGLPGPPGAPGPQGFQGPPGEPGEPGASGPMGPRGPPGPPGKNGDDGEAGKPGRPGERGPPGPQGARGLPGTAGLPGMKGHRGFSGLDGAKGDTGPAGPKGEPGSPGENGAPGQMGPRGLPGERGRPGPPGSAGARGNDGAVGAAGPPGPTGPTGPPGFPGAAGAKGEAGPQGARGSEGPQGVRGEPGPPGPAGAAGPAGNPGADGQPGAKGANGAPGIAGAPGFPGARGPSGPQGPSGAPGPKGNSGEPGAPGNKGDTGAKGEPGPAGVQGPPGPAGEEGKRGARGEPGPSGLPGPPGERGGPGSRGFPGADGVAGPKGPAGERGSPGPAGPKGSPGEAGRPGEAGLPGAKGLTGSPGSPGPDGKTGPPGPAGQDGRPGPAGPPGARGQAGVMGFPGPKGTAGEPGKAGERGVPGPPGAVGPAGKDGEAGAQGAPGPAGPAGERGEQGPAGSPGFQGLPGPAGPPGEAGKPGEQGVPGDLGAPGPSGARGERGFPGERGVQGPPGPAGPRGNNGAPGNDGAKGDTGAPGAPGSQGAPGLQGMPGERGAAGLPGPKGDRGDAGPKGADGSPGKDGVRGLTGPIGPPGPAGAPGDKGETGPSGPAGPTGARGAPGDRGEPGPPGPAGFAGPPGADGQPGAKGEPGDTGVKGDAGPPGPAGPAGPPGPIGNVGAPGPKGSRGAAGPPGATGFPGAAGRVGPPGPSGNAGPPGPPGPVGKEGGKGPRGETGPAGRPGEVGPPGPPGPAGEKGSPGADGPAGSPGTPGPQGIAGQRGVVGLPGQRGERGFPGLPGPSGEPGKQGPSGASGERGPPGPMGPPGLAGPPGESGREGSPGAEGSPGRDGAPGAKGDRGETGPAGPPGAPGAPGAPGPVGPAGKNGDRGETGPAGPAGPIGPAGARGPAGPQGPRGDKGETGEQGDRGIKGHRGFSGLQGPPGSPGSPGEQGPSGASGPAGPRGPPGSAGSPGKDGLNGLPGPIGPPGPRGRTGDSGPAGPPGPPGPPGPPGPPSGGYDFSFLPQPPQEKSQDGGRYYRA
T2 sequence (P02466 86-1125 limits assumed, chain 2 of 2): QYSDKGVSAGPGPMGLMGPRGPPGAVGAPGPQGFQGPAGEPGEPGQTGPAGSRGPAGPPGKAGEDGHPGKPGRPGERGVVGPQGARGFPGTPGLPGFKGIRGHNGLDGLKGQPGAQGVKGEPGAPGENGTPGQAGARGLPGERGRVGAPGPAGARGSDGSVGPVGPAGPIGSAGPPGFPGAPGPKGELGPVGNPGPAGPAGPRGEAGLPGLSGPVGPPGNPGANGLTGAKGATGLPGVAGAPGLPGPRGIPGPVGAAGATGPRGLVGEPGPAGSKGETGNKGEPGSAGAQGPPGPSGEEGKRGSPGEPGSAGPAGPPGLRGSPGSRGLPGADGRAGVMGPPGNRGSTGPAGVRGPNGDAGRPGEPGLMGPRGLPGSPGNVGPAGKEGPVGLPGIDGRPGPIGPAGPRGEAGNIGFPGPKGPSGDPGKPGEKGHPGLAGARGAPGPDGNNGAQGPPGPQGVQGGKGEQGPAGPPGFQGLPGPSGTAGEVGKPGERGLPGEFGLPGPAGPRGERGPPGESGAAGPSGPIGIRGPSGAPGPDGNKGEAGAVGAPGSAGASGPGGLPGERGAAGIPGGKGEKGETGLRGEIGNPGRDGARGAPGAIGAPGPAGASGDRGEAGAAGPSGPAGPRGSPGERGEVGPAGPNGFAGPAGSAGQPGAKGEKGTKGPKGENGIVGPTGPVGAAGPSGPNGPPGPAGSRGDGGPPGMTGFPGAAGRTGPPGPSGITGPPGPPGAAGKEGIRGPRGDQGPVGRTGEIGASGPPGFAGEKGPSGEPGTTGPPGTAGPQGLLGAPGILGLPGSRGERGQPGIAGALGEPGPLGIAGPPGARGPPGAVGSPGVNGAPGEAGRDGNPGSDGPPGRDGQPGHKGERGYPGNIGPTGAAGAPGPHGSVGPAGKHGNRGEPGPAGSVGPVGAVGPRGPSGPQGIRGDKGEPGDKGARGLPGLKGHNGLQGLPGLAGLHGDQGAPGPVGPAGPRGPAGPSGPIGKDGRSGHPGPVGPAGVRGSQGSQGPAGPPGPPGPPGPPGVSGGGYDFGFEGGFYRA
Protocol: as §1, §2, §3

[3] = target: T3, Canine collagen (Native canine Collagen Type I and III protein, YO protein AB, cat#739) (canine, UniProt Q9XSJ7 158-1214; O46392 80-1119)
T3 construct: The bought preparation is a mixture of native canine collagen types I and III, not one defined trimer; It was gelled and dried as a film in microtiter wells; also called dog collagen
Protocol: as §1, §2, §3

| Binder | Kd [1] [µM] | Kd [2] [µM] | Kd [3] [µM] |
| --- | --- | --- | --- |
| GKWHCTTKFPHHYCLY (Bip (L-4,4'-biphenylalanine) at position 17; C-terminal amide (NH2); cyclized through Cysteine-Cysteine disulfide bond (Cys5-Cys14); GdDOTAGA coupled by amide bonds to the primary amines (N-terminal amine and lysine epsilon amino groups), Tested as the Gd(III)-DOTAGA chelate conjugate of the cyclic peptide; also called CMPD ID 1; Comp ID No. 1) [Compound ID No. 1] | 3.8 | 21.1 | 4.4 |
| KWHCYTKFPHHYCVY[Bip]-NH2 (disulfide 4-13; not fully specified (residues 1, 7, N-terminus); printed as K-W-H-C-Y-T-K-F-P-H-H-Y-C-V-Y-Bip; also: GdDOTAGA on N-terminal amine or lysine epsilon amino groups, Tested as the Gd(III)-DOTAGA chelate conjugate of the cyclic peptide; also called CMPD ID 4) [Compound ID No. 4] | 9.6 | 4.6 | 2 |
| GdDOTAGA-K(GdDOTAGA)WHCTTK(GdDOTAGA)FPHHYCLY[Bip]-NH2 (disulfide 4-13, Tested as the Gd(III)-DOTAGA chelate conjugate of the cyclic peptide; also called CMPD ID 2) [Compound ID No. 2] | 4.9 | 20.6 | 4.9 |
| GdDOTAGA-K(GdDOTAGA)YWHCTTK(GdDOTAGA)FPHHYCLY[Bip]-NH2 (disulfide 5-14, Tested as the Gd(III)-DOTAGA chelate conjugate of the cyclic peptide; also called CMPD ID 3) [Compound ID No. 3] | 29.8 | – | – |
